How the values were obtained:
3×MBT domain of L3MBTL1 = experiment: Triple SILAC pull-down, 3xMBT/3xMBTD355N ratio (cytoplasmic, nuclear and chromatin fractions of 293T cells); type: binding, human; conditions: SILAC ratio, pull-down 3xMBT vs 3xMBTD355N; for 3xMBT/D355N UNC Heavy: experiment with UNC0638 in heavy SILAC media; for 3xMBT/D355N UNC Light: experiment with UNC0638 in light SILAC media;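 for all read-outs here: proteins quantified with MaxQuant, requiring at least two unique peptides and quantification in both label directions, normalized to the mean of proteins from a digested loading control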
G9a and GLP = biological target: T1, G9a and GLP (Homo sapiens, UniProt Q96KQ7+Q9H9B1); experiment: Triple SILAC pull-down after UNC0638 treatment of 293T cells, DMSO/UNC0638 ratio of protein captured by 3×MBT; type: cell-based; parameters: endogenous in cells; host or cells: HEK 293T; conditions: for Relative to UNC0638 UNC Heavy / Relative to UNC0638 UNC Light: SILAC ratio DMSO/UNC0638 of protein pulled down with 3xMBT; for Relative to UNC0638 UNC Heavy: UNC0638 in heavy SILAC media; for Relative to UNC0638 UNC Light: UNC0638 in light SILAC media; for Relative to UNC0638 Average: average of UNC Light and UNC Heavy experiments;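 for all read-outs here: mass spectrometry (Q-Exactive) SILAC quantitation, DMSO/UNC0638 ratio computed after subtracting 3×MBTD355N mutant pull-down background, only proteins with at least twofold 3×MBT over mutant signal considered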
T1 sequence (Q96KQ7 2-1210 limits assumed): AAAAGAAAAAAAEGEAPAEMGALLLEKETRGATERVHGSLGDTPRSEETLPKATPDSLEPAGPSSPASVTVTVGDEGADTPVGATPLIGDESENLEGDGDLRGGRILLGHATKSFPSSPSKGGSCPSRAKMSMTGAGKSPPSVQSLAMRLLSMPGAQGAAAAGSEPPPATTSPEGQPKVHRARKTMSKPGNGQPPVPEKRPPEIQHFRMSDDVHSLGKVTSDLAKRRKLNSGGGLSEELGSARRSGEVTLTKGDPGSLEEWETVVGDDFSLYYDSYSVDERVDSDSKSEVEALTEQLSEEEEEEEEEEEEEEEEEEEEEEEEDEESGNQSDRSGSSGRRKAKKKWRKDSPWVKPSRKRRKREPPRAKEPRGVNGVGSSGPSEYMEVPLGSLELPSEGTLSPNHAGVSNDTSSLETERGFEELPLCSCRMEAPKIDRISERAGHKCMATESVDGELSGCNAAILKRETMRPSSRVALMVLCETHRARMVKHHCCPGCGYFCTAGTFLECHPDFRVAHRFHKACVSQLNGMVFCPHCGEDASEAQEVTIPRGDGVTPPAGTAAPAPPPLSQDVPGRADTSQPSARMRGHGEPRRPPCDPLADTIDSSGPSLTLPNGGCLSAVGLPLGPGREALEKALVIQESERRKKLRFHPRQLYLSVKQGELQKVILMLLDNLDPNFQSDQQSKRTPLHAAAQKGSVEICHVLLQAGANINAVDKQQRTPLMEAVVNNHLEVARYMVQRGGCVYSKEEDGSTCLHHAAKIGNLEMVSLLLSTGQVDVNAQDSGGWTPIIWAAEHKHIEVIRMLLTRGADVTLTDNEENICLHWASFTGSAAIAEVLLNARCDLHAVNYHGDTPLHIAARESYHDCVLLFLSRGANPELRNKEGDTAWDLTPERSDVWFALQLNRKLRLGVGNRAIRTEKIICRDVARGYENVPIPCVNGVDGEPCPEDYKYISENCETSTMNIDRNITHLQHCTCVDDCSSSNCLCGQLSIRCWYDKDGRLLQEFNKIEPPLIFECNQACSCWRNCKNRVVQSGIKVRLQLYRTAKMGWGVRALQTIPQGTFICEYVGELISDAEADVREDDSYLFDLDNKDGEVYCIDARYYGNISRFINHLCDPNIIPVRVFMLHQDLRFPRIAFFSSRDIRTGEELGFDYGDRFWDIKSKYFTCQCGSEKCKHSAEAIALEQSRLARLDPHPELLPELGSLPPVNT
T1 sequence (Q9H9B1 2-1298 limits assumed): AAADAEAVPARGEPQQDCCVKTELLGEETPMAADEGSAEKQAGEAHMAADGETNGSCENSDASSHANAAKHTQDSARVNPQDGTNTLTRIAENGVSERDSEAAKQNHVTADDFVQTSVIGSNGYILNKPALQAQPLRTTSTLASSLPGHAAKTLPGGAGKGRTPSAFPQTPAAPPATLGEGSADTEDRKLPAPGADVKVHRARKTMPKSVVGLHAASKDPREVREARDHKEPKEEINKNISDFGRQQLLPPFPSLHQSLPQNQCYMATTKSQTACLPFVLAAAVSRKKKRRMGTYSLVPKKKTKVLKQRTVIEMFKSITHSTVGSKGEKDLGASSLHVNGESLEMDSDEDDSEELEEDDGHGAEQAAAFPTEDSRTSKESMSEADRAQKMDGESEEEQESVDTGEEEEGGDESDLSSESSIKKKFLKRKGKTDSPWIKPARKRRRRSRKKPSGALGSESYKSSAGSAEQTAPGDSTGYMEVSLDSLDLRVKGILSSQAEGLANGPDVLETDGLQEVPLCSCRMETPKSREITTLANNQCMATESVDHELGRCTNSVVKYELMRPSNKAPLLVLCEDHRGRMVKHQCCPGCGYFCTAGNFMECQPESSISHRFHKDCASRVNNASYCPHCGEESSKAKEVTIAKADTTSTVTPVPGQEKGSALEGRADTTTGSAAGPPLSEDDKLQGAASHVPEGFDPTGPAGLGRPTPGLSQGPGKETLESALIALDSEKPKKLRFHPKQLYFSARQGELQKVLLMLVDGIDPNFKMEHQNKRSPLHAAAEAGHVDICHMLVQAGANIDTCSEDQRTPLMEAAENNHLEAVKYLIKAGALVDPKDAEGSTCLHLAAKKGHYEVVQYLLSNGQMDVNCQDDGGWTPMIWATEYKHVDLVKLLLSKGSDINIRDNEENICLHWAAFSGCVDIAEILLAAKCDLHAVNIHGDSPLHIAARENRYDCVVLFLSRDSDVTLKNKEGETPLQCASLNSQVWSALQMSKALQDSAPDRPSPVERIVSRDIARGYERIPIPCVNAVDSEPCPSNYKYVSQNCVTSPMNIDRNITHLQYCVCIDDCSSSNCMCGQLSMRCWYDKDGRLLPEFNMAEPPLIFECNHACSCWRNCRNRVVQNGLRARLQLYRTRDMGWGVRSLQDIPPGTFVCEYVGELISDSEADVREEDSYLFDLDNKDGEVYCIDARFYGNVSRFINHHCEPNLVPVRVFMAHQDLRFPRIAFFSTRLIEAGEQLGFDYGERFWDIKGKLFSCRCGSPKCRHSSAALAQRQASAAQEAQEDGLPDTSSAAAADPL

Molecule | 3xMBT/D355N UNC Heavy (3×MBT domain of L3MBTL1) | 3xMBT/D355N UNC Light (3×MBT domain of L3MBTL1) | Relative to UNC0638 UNC Heavy (G9a and GLP) | Relative to UNC0638 UNC Light (G9a and GLP) | Relative to UNC0638 Average (G9a and GLP) | Candidate G9a/GLP target (G9a and GLP; reduced association with 3xMBT after UNC0638 treatment)
CPSF2 (protein, UniProt Q9P2I0 1-782, looked up) Cleavage and polyadenylation …: MTSIIKLTTLSGVQEESALCYLLQVDEFRFLLDCGWDEHFSMDIIDSLRKHVHQIDAVLLSHPDPLHLGALPYAVGKLGLNCAIYATIPVYKMGQMFMYDLYQSRHNTEDFTLFTLDDVDAAFDKIQQLKFSQIVNLKGKGHGLSITPLPAGHMIGGTIWKIVKDGEEEIVYAVDFNHKREIHLNGCSLEMLSRPSLLITDSFNATYVQPRRKQRDEQLLTNVLETLRGDGNVLIAVDTAGRVLELAQLLDQIWRTKDAGLGVYSLALLNNVSYNVVEFSKSQVEWMSDKLMRCFEDKRNNPFQFRHLSLCHGLSDLARVPSPKVVLASQPDLECGFSRDLFIQWCQDPKNSIILTYRTTPGTLARFLIDNPSEKITEIELRKRVKLEGKELEEYLEKEKLKKEAAKKLEQSKEADIDSSDESDIEEDIDQPSAHKTKHDLMMKGEGSRKGSFFKQAKKSYPMFPAPEERIKWDEYGEIIKPEDFLVPELQATEEEKSKLESGLTNGDEPMDQDLSDVPTKCISTTESIEIKARVTYIDYEGRSDGDSIKKIINQMKPRQLIIVHGPPEASQDLAECCRAFGGKDIKVYMPKLHETVDATSETHIYQVRLKDSLVSSLQFCKAKDAELAWIDGVLDMRVSKVDTGVILEEGELKDDGEDSEMQVEAPSDSSVIAQQKAMKSLFGDDEKETGEESEIIPTLEPLPPHEVPGHQSVFMNEPRLSDFKQVLLREGIQAEFVGGVLVCNNQVAVRRTETGRIGLEGCLCQDFYRIRDLLYEQYAIV | 1.85 log base 2 | 4.20 log base 2 | 0.15 log base 2 | 3.16 log base 2 | 1.65 log base 2 | ✓
SRP72 (protein, UniProt O76094 2-671, looked up) Signal recognition particle …: ASGGSGGVSVPALWSEVNRYGQNGDFTRALKTVNKILQINKDDVTALHCKVVCLIQNGSFKEALNVINTHTKVLANNSLSFEKAYCEYRLNRIENALKTIESANQQTDKLKELYGQVLYRLERYDECLAVYRDLVRNSQDDYDEERKTNLSAVVAAQSNWEKVVPENLGLQEGTHELCYNTACALIGQGQLNQAMKILQKAEDLCRRSLSEDTDGTEEDPQAELAIIHGQMAYILQLQGRTEEALQLYNQIIKLKPTDVGLLAVIANNIITINKDQNVFDSKKKVKLTNAEGVEFKLSKKQLQAIEFNKALLAMYTNQAEQCRKISASLQSQSPEHLLPVLIQAAQLCREKQHTKAIELLQEFSDQHPENAAEIKLTMAQLKISQGNISKACLILRSIEELKHKPGMVSALVTMYSHEEDIDSAIEVFTQAIQWYQNHQPKSPAHLSLIREAANFKLKYGRKKEAISDLQQLWKQNPKDIHTLAQLISAYSLVDPEKAKALSKHLPSSDSMSLKVDVEALENSAGATYIRKKGGKVTGDSQPKEQGQGDLKKKKKKKKGKLPKNYDPKVTPDPERWLPMRERSYYRGRKKGKKKDQIGKGTQGATAGASSELDASKTVSSPPTSPRPGSAATVSASTSNIIPPRHQKPAGAPATKKKQQQKKKKGGKGGW | 1.68 log base 2 | 2.90 log base 2 | 0.27 log base 2 | 0.10 log base 2 | 0.19 log base 2 | 

— patent publication US20140274782A1, “AFFINITY REAGENTS AND METHODS FOR DETECTION, PURIFICATION, AND PROTEOMIC ANALYSIS OF METHYLATED PROTEINS” (The Board of Trustees of the Leland Stanford Junior …, priority 2013, published 2014)
